Publication PMC10743139, “Discovery and Engineering of a Novel Bacterial L-Aspartate α-Decarboxylase for Efficient Bioconversion” (Foods, 2023)

B1: BsADC (BacSub), ADC from B. subtilis (Bacillus subtilis subsp. subtilis str. 168) (protein)
chain 1: MYRTMMSGKLHRATVTEANLNYVG
chain 2: SITIDEDLIDAVGMLPNEKVQIVNNNNGARLETYIIPGKRGSGVICLNGAAARLVQEGDKVIIISYKMMSDQEAASHEPKVAVLNDQNKIEQMLGNEPARTIL
B2: LisMon, ADC from Listeria Monocytogenes (Listeria monocytogenes EGD-e) (protein)
chain 1: MFRTMMNGKIHRATVTEANLNYVG
chain 2: SITIDSAILEAVDMLPNEKVQIVNNNNGARIETYIIPGEPGSGVICLNGAAARHVQVGDVVIIMSYGMFTDEEAKTHEPKIVVLDEKNHIEMILPEEKAHTTL
B3: CjADC (CorJei), L-aspartate α-decarboxylase from Corynebacterium jeikeium (Corynebacterium jeikeium K411) (protein)
chain 1: MLRTMLKSKIHRATVTQADLHYVG
chain 2: SCTIDADLMEAADILEGEQIDIVDIDNGNRLTTYAITGDRGTGVIGINGAAARLISPGDLVIIIGYAQYSEEDLKNYASRVVFVDGNNKQVELGGDPAQVPDGSGLKNPRHPEA
B4: CorGlu, ADC from Corynebacterium glutamicum (Corynebacterium glutamicum ATCC 13032) (protein)
chain 1: MLRTILGSKIHRATVTQADLDYVG
chain 2: SVTIDADLVHAAGLIEGEKVAIVDITNGARLETYVIVGDAGTGNICINGAAAHLINPGDLVIIMSYLQATDAEAKAYEPKIVHVDADNRIVALGNDLAEALPGSGLLTSRSI
B5: BacThe, ADC from Bacteroides thetaiotaomicron (Bacteroides thetaiotaomicron VPI-5482) (protein)
chain 1: MMIEVLKSKIHCARVTEANLNYMG
chain 2: SITIDEDLLDAANMIPGEKVYIADNNNGERFETYIIKGERGSGKICLNGAAARKVQPDDIVIIMSYALMDFEEAKSFKPTVIFPDPATNSVVK

What was measured:
N[C@@H](CC(=O)O)C(=O)O = assay: HPLC of beta-alanine, Michaelis-Menten fit; format: biochemical, Corynebacterium jeikeium; settings: sodium L-aspartate 1-100 mM, pH 7.0, 37 °C, 5 min
Text: HPLC of beta-alanine, Michaelis-Menten fit on CjADC (CorJei), L-aspartate α-decarboxylase from Corynebacterium jeikeium

purified protein = substrate: N[C@@H](CC(=O)O)C(=O)O; assay: purified protein; settings: sodium L-aspartate 1-100 mM, pH 7.0, 37 °C, 5 min

Molecule	Km (N[C@@H](CC(=O)O)C(=O)O) [mM]	kcat (N[C@@H](CC(=O)O)C(=O)O) [s⁻¹]	kcat/Km (N[C@@H](CC(=O)O)C(=O)O) [M⁻¹ s⁻¹]	Km (purified protein) [mM]
CjADC (CorJei), L-aspartate α-decarboxylase from Corynebacterium jeikeium (Corynebacterium jeikeium K411; C26V/I88M/R3K/Y90F)	2.2 ± 0.5	209.2 ± 0.8	95100 ± 1600	–
CjADC (CorJei), L-aspartate α-decarboxylase from Corynebacterium jeikeium (Corynebacterium jeikeium K411; C26V/Y90F)	4.1 ± 0.3	–	–	–
CjADC (CorJei), L-aspartate α-decarboxylase from Corynebacterium jeikeium (Corynebacterium jeikeium K411; I88M/Y90F)	3.2 ± 0.4	–	–	–
CjADC (CorJei), L-aspartate α-decarboxylase from Corynebacterium jeikeium (Corynebacterium jeikeium K411; I88L/Y90F)	3.9 ± 0.1	88.6 ± 2.8	22700 ± 500	–
CjADC (CorJei), L-aspartate α-decarboxylase from Corynebacterium jeikeium (Corynebacterium jeikeium K411; C26V/I88M/Y90F)	2.6 ± 0.6	171.5 ± 0.8	61200 ± 1300	–
CjADC (CorJei), L-aspartate α-decarboxylase from Corynebacterium jeikeium (Corynebacterium jeikeium K411; C26V/I88M)	3.6 ± 0.2	–	–	–
B1	–	–	–	4.2 ± 0.3
B2	–	–	–	6.0 ± 0.2
B3	–	–	–	3.6 ± 0.2
B4	–	–	–	4.5 ± 0.1
B5	–	–	–	8.9 ± 0.4
